# Measured values as given in article PMC3748711, “APP interacts with LRP4 and agrin to coordinate the development of the neuromuscular junction in mice” (eLife, 2013).
# B1: APP-Fc (APP695 extracellular domain, residues 1-596, fused to the constant region of human IgG) (Fc fusion, UniProt P12023-2 18-596, looked up)
# chain: LEVPTDGNAGLLAEPQIAMFCGKLNMHMNVQNGKWESDPSGTKTCIGTKEGILQYCQEVYPELQITNVVEANQPVTIQNWCKRGRKQCKTHTHIVIPYRCLVGEFVSDALLVPDKCKFLHQERMDVCETHLHWHTVAKETCSEKSTNLHDYGMLLPCGIDKFRGVEFVCCPLAEESDSVDSADAEEDDSDVWWGGADTDYADGGEDKVVEVAEEEEVADVEEEEADDDEDVEDGDEVEEEAEEPYEEATERTTSTATTTTTTTESVEEVVRVPTTAASTPDAVDKYLETPGDENEHAHFQKAKERLEAKHRERMSQVMREWEEAERQAKNLPKADKKAVIQHFQEKVESLEQEAANERQQLVETHMARVEAMLNDRRRLALENYITALQAVPPRPHHVFNMLKKYVRAEQKDRQHTLKHFEHVRMVDPKKAAQIRSQVMTHLRVIYERMNQSLSLLYNVPAVAEEIQDEVDELLQKEQNYSDDVLANMISEPRISYGNDALMPSLTETKTTVELLPVNGEFSLDDLQPWHPFGVDSVPANTENEVEPVDARPAADRGLTTRPGSGLTNIKTEEISEVKM
# B2: MBP-LRP4LBD (LRP4 ligand binding domain, aa 27-349, fused to maltose-binding protein) (domain or fragment, mouse, UniProt Q8VI56 27-349, looked up)
# chain: CGRSHFTCAVSALGECTCIPAQWQCDGDNDCGDHSDEDGCTLPTCSPLDFHCDNGKCIRRSWVCDGDNDCEDDSDEQDCPPRECEEDEFPCQNGYCIRSLWHCDGDNDCGDNSDEQCDMRKCSDKEFRCSDGSCIAEHWYCDGDTDCKDGSDEESCPSAVPSPPCNLEEFQCAYGRCILDIYHCDGDDDCGDWSDESDCSSHQPCRSGEFMCDSGLCINSGWRCDGDADCDDQSDERNCTTSMCTAEQFRCRSGRCVRLSWRCDGEDDCADNSDEENCENTGSPQCASDQFLCWNGRCIGQRKLCNGINDCGDSSDESPQQNC
# notes: Species is stated as mouse for the LRP4-Fc construct, not expressly for this one; Vector pMAL-p4x; also called LRP4-MBP; source: E. coli BL21, periplasmic extract, purified on amylose column; not shown: MBP, N-terminal, kept
# Assays:
# [1] = target: LRP4 (endogenous, mouse embryonic muscle) (mouse (endogenous in embryonic muscle), UniProt Q8VI56 21-1905); assay: cell-based or functional assay
# [2] = target: B1; assay: pull-down; 100 ng purified APP-Fc on Protein A-agarose beads, incubated with 100 ng purified MBP-LRP4LBD and 0-1000 ng neuronal agrin in PBS with 0.1% BSA, 4 hr, 4°C; immunoblot with anti-MBP, anti-agrin, anti-Fc; settings: both partners purified
# Chain of LRP4 (endogenous, mouse embryonic muscle) (Q8VI56 21-1905): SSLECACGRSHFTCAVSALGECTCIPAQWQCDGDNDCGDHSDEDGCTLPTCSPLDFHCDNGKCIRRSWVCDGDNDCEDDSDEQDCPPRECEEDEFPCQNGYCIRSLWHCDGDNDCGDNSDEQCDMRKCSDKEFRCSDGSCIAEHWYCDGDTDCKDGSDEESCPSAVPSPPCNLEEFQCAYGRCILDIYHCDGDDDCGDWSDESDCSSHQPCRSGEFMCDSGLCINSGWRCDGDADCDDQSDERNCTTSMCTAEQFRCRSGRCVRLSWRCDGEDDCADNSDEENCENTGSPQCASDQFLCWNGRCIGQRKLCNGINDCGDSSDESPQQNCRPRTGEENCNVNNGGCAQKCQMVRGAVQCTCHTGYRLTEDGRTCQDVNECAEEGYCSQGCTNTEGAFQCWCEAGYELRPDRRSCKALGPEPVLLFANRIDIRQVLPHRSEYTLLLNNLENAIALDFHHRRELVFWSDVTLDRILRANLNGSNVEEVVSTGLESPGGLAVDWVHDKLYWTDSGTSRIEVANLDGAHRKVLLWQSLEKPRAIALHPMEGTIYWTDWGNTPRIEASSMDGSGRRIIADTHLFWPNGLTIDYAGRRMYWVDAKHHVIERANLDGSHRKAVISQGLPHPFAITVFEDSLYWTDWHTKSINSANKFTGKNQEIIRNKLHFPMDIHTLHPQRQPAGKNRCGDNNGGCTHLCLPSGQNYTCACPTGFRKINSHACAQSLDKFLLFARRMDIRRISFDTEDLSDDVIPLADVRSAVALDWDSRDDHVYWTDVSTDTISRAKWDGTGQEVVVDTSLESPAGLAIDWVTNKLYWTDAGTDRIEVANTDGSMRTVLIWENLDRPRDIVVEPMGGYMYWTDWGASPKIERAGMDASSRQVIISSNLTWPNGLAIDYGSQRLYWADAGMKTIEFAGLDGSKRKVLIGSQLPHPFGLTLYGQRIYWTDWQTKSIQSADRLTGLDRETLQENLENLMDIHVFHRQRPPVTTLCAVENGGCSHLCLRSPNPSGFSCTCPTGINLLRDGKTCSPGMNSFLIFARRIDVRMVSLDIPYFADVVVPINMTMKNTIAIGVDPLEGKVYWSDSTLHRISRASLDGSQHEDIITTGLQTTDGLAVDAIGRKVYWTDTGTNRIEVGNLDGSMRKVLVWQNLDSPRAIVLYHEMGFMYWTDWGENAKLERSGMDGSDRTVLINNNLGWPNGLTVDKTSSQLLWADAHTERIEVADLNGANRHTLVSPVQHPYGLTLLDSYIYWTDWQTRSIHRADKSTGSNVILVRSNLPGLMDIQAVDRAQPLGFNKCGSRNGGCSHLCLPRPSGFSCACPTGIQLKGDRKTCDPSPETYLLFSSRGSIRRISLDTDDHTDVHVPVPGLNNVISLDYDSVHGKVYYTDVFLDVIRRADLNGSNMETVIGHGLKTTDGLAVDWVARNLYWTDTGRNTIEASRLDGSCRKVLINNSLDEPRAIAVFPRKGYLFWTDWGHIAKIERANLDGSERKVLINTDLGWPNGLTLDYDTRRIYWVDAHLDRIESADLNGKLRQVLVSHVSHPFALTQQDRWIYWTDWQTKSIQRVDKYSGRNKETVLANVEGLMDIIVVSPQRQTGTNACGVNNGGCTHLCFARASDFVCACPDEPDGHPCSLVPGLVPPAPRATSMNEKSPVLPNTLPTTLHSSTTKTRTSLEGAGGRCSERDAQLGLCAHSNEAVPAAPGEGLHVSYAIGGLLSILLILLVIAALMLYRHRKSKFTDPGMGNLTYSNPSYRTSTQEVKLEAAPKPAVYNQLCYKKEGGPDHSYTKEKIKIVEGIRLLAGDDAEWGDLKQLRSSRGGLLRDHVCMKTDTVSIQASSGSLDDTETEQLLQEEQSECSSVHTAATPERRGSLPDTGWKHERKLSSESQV
"MuSK tyrosine phosphorylation in myotubes, APP-Fc alone at 1×, 10× or 100× molar concentrations compared to 0.1 nM agrin (0.1-10 nM), 30 min at 37°C, without agrin [1] [fold over baseline]","fold binding against no agrin, with 10 ng/ml agrin [2] [fold]","fold binding against no agrin, with 30 ng/ml agrin [2] [fold]",Binder
4.3,–,–,B1
–,1.3,3,B2
